Measured values: patent US20200392225A1
Residue numbers refer to the chain shown, from its start.

T1: human NPR3 (counter target) (human) (UniProt P17342)
T1 sequence (looked up): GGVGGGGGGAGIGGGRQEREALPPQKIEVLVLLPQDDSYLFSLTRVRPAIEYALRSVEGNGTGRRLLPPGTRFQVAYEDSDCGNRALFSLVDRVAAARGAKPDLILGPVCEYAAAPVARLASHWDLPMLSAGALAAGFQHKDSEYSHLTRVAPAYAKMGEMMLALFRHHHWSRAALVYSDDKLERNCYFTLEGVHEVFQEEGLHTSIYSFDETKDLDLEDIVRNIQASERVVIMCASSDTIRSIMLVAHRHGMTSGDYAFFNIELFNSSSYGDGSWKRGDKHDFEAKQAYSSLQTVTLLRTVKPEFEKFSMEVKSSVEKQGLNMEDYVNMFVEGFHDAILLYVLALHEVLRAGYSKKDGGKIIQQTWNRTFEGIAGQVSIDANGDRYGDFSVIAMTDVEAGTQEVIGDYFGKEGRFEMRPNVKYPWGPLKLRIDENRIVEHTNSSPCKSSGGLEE

T2: human NPR3 in the presence of ANP (human) (UniProt P17342)
T2 sequence (looked up): T1 sequence (looked up)
T2 sequence (peptide, looked up): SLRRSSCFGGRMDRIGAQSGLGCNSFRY

T3: rat NPR1, recombinant antigen (rat) (UniProt P18910)
T3 sequence: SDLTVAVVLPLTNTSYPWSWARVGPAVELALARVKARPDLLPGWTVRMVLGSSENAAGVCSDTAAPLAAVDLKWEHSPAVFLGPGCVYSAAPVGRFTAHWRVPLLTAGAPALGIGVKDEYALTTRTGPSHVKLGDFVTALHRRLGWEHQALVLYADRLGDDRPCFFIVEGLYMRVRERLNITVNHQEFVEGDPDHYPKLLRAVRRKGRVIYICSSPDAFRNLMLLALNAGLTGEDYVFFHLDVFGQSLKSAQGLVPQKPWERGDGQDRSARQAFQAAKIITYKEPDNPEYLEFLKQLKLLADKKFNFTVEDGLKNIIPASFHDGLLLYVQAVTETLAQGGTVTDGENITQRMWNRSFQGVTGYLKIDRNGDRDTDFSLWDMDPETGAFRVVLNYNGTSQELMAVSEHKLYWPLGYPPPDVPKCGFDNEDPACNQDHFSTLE

B1: YY05 IgG (YY05_LALA) (antibody, V domains shown)
VH: EVQLVQSGAEVKKPGESLKISCKGSGYSFTSYWISWVRQMPGKGLEWMGIIYPGTSYTRYSPSFQGQVTISADKSISTAYLQWSSLKASDTAMYYCARGAVAGQLGFDHWGQGTLVTVSS
VL: QSVLTQPPSVSGAPGQRVTISCTGSSSNIGAGYDVHWYQQLPGTAPKLLIYGNSNRPSGVPDRFSGSKSGTSASLAITGLQAEDEADYYCQSYYTSSHGPVFGGGTKLTVLG
B2: YY07 IgG (YY07_LALA) (antibody, V domains shown)
VH: B1 VH with A100S, V101L, A102P, Q104L
VL: B1 VL with S58N, Y94D, T95S, S96P, S97T, H98S, G99S, P100S
B3: YY06 IgG (YY06_LALA) (antibody, V domains shown)
VH: EVQLLESGGGLVQPGGSLRLSCAASGFTFSSYAISWVRQAPGKGLEWVSAISGSGGSTYYAESVKGRFTISRDNSKNTLYLQMNSLRAEDTAVYYCARPYLGDRRSYGFDHWGQGTLVTVSS
VL: QSALTQPASVSGSPGQSITISCTGTSSDVGSYNLVSWYQQHPGKAPKLMIYEGSKRPSGVSNRFSGSKSGNTASLTISGLQAEDEADYYCSSYGFHIVVVVFGGGTKLTVLG
B4: WW06 IgG (WW06_LALA) (antibody, V domains shown)
VH: QVQLVQSGAEVKKPGESLKISCKGSGYSFTSYWIAWVRQMPGKGLEWMGRIDPDNSYTRYSPSFQGQVTISADKSISTAYLQWSSLKASDTAMYYCARWLSPGYALGEQPAGMDHWGQGTLVTVSS
VL: DIVLTQPPSVSGAPGQRVTISCTGSSSNIGAGYAVHWYQQLPGTAPKLLIYSNNKRPSGVPDRFSGSKSGTSASLAITGLQAEDEADYYCQSYDLQKSSRVFGGGTKLTVLG

How the values were obtained:
[1] = target: T1, human NPR3 (counter target) (human); assay: ELISA, 1 uM IgG
[2] = target: human NPR1 W74R mutant in the presence of ANP (human) (UniProt P01160); assay: ELISA, 1 uM IgG, +100 nM ANP
[3] = target: T2, human NPR3 in the presence of ANP (human); assay: ELISA, 1 uM IgG, +100 nM ANP
[4] = target: T3, rat NPR1, recombinant antigen (rat); assay: ELISA, 1 uM IgG
[5] = target: human NPR1 W74R mutant in the presence of ANP (human) (UniProt P01160); assay: ELISA, IgG titrated on the antigen with 250 fold molar excess of ANP [cont.]
[6] = target: human NPR1 W74R mutant in the presence of ANP (human) (UniProt P01160); assay: ELISA, IgG titration, +100 nM ANP
[7] = target: human NPR1 expressed on CHO-K1 cells in the presence of ANP (human) (UniProt P01160); assay: flow cytometry, 2 uM IgG, +100 nM ANP

Binder | ELISA IgG binding at 1 uM IgG (unit not given) [1] | ELISA IgG binding at 1 uM IgG (unit not given) [2] | ELISA IgG binding at 1 uM IgG (unit not given) [3] | ELISA IgG binding at 1 uM IgG (unit not given) [4] | EC50 (read off the curve) [5] [nM] | EC50 [6] [nM] | flow cytometry S/BG [7] [S/BG]
B1 | 7 | 23 | 4 | – | – | – | –
B2 | – | 20 | 5 | – | – | – | –
B3 | 6 | 86 | 6 | 3 | 20 | – | –
B4 | – | – | – | – | – | 0.8 | 1.1
